Assay results published in PMC6475807 (Biochemistry, 2018).
Like-named read-outs stand apart in the source and are kept apart here.

B1: ^coreAFG3L2^E575Q (enzyme)
chain: not shown
B2: ^coreAFG3L2^E408Q (enzyme)
chain: not shown

How the values were obtained:
SEC [1] = target: the molecule itself; assay: SEC
SEC [2] = target: the molecule itself; assay: SEC; remark: listed apart in the source

Protein	stoichiometry N (SEC [1])	stoichiometry N (SEC [2])
B1	6	
B2		6
